Test results published in PMC5844954.
One block for each binder: values may come before it.

Tests used:
[1] = biological target: human LGN TPR domain, fragment 15-350 (human); assay: SEC; purified co-expressed complexes on a size-exclusion column with globular markers, Coomassie SDS-PAGE of peak fractions
[2] = biological target: human LGN TPR domain, residues 1-350, FLAG-tagged (and a GFP-tagged copy) (human); assay: co-IP; HEK293T co-transfected with FLAG-LGN^TPR, GFP-LGN^TPR and GFP-Insc^ASYM-ΔαB; anti-FLAG M2 sepharose beads, modified JS buffer, 1 h at 4 °C
human LGN TPR domain, residues 1-350, FLAG-tagged (and a GFP-tagged copy) (human), sequence (P81274 1-350): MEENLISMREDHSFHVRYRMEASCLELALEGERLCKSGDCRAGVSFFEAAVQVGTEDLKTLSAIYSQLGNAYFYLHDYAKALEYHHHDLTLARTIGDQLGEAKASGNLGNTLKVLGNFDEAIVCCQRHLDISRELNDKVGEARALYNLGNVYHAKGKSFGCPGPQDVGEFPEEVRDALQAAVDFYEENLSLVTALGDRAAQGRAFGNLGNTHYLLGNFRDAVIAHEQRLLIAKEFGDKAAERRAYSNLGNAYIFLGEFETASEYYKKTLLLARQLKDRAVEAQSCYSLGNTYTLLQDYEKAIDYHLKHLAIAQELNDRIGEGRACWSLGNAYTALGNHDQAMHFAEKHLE

stoichiometry N (Insc per LGN (2:2)) [1]: 1
B1: human 6His-tagged full-length Insc (residues 1-532) (natural protein)
chain: MMALPGGRHLDSVTLPGQRLHLMQVDSVQRWMEDLKLMTECECMCVLQAKPISLEEDAQGDLILAGGPGPGDPLQLLLKRGWVISTELRRIGQKLAQDRWARVHSMSVRLTCHARSMVSEYSAVSRNSLKEMGEIEKLLMEKCSELSAVTERCLQVENEHVLKSMKACVSETLSMLGQHFGQLLELALTREVQALVRKIDASDNIYTTESTTGNLFSLTQEGAPLCRIIAKEGGVVALFKVCRQDSFRCLYPQALRTLASICCVEEGVHQLEKVDGVLCLADILTDNSHSEATRAEAAAVVAQVTSPHLPVTQHLSSFLESMEEIVTALVKLCQEASSGEVFLLASAALANITFFDTMACEMLLQLNAIRVLLEACSDKQRVDTPYTRDQIVTILANMSVLEQCASDIIQENGVQLIMGMLSEKPRSGTPAEVAACERVQQKAAVTLARLSRDPDVAREAVRLSCMSRLIELCRSPSERNSSDAVLVACLAALRRLAGVCPEGLQDSDFQQLVQPRLVDSFLLCSNMEESFV

stoichiometry N (Insc per LGN (1:1)) [2]: 1
B2: human GFP-Insc^ASYM-ΔαB (Insc^ASYM lacking residues 62-191) (domain or fragment)
chain: MMALPGGRHLDSVTLPGQRLHLMQVDSVQRWMEDLKLMTECECMCVLQAKPISLEEDAQGDVQALVRKIDASDNIYTTESTTGNLFSLTQEGAPLCRIIAKEGGVVALFKVCRQDSFRCLYPQALRTLASICCVEEGVHQLEKVDGVLCLADILTDNSHSEATRAEAAAVVAQVTSPHLPVTQHLSS
